{
  "source": "patent US20030180744",
  "about": "“High affinity oligonucleotide ligands to growth factors” (GILEAD SCIENCES, INC., published 2003)",
  "molecular_target": "T1, KGF (hKGF) (Homo sapiens, UniProt P21781 P21781:32-194)",
  "T1 sequence": "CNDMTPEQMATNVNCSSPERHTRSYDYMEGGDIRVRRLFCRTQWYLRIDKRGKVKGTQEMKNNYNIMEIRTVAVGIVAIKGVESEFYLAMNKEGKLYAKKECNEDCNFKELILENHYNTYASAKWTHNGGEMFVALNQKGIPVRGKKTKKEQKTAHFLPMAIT",
  "assay": "filter; DPBS, 37 C",
  "settings": "tags: Upstate Biotechnology, label: 32P",
  "data": [
    {"binder": "45F (ssRNA, 2'-F pyrimidines) RNA: GGGAGGACGAUGCGGGUCGUAUUCAUCUCCUUGUUCUGUUUCGUUGCACCUGGCCCAGACGACUCGCCCGA", "values": [
      {"measurement": "Kd", "result": 4.7, "unit": "nM"}
    ]},
    {"binder": "54F (ssRNA, 2'-F pyrimidines) RNA: GGGAGGACGAUGCGGAAGAUCUCCCAACUGCUGUGGCUAAUAAUUCUCUCCGCGUCCCCAGACGACUCGCCCGA", "values": [
      {"measurement": "Kd", "result": 1.23, "unit": "nM"}
    ]},
    {"binder": "41F (ssRNA, 2'-F pyrimidines) RNA: GGGAGGACGAUGCGGGGACUUUGACAGGCAUUGAUUUCGACCUGUUCCCCGUGGCCAGACGACUCGCCCGA", "values": [
      {"measurement": "Kd", "result": 1.44, "unit": "nM"}
    ]},
    {"binder": "49F (ssRNA, 2'-F pyrimidines) RNA: GGGAGGACGAUGCGGGGACUUUGACAGGCAUUGAUUUCGACGUGUUCCCCGUGGCCAGACGACUCGCCCGA", "values": [
      {"measurement": "Kd", "result": 1, "unit": "nM"}
    ]},
    {"binder": "22F (ssRNA, 2'-F pyrimidines) RNA: GGGAGGACGAUGCGGCCUGAAGUACAGGCUCUAAACUCCAAGCGCGACCGUCCGCCAGACGACUCGCCCGA", "values": [
      {"measurement": "Kd", "result": 2.75, "unit": "nM"}
    ]},
    {"binder": "55F (ssRNA, 2'-F pyrimidines) RNA: GGGAGGACGAUGCGGUCCGUCAUAACGGCCAUAAACUGCGAAUACUCCCUGGCCCAGACGACUCGCCCGA", "values": [
      {"measurement": "Kd", "result": 2.52, "unit": "nM"}
    ]},
    {"binder": "55N (ssRNA, 2'-NH2 pyrimidines) RNA: GGGAGGACGAUGCGGACACACAAGUGAAGGUCAGACGCGAAUUACGUGGGUGGGCAGACGACUCGCCCGA", "values": [
      {"measurement": "Kd", "result": 1.25, "unit": "nM"}
    ]},
    {"binder": "5F (ssRNA, 2'-F pyrimidines) RNA: GGGAGGACGAUGCGGCGUCCCGAGUCACGCUGUCCUGAUAACCUUCUCUGUGCCCAGACGACUCGCCCGA", "values": [
      {"measurement": "Kd", "result": 2.53, "unit": "nM"}
    ]},
    {"binder": "36N (ssRNA, 2'-NH2 pyrimidines) RNA: GGGAGGACGAUGCGGGAAGGGAACAGGAUAAGACAAGUCGAACAAAGCCGAGGUGCAGACGACUCGCCCGA", "values": [
      {"measurement": "Kd", "result": 8.27, "unit": "nM"}
    ]},
    {"binder": "34N (ssRNA, 2'-NH2 pyrimidines) RNA: GGGAGGACGAUGCGGGCGGGAAGAGCUAAUGGAAGUGGAAUCAGUCACAGUGCGGCAGACGACUCGCCCGA", "values": [
      {"measurement": "Kd", "result": 0.8, "unit": "nM"}
    ]},
    {"binder": "58F (ssRNA, 2'-F pyrimidines) RNA: GGGAGGACGAUGCGGGAACUAAUGGCCGUGAUUAACCAAUGCAGGCUUCCUGCGCCAGACGACUCGCCCGA", "values": [
      {"measurement": "Kd", "result": 2.52, "unit": "nM"}
    ]},
    {"binder": "10N (ssRNA, 2'-NH2 pyrimidines) RNA: GGGAGGACGAUGCGGUAGCUGCUGUCAUGCAAGACACUAGAAGAUUAAGAUGGGGCAGACGACUCGCCCGA", "values": [
      {"measurement": "Kd", "result": 1.1, "unit": "nM"}
    ]},
    {"binder": "23F (ssRNA, 2'-F pyrimidines) RNA: GGGAGGACGAUGCGGCCCUACCACUUUUUCCCUCUACUGUUAUCCUGUCCCCCAGACGACUCGCCCGA", "values": [
      {"measurement": "Kd", "result": 2.52, "unit": "nM"}
    ]},
    {"binder": "25N (ssRNA, 2'-NH2 pyrimidines) RNA: GGGAGGACGAUGCGGGAGGGAAUGAGGAAACAACUAGCAGAUAACCGAGCUGGCCAGACGACUCGCCCGA", "values": [
      {"measurement": "Kd", "result": 0.87, "unit": "nM"}
    ]},
    {"binder": "57F (ssRNA, 2'-F pyrimidines) RNA: GGGAGGACGAUGCGGUGACUAUCUGGCUCGAUCCAAUCACCCGAGCCCACCGCGCCAGACGACUCGCCCGA", "values": [
      {"measurement": "Kd", "result": 1.2, "unit": "nM"}
    ]},
    {"binder": "9F (ssRNA, 2'-F pyrimidines) RNA: GGGAGGACGAUGCGGAUAAUGGCUAGAACUAGCUCGCAUCUUGGUGUCCGGUGCCCAGACGACUCGCCCGA", "values": [
      {"measurement": "Kd", "result": 0.83, "unit": "nM"}
    ]},
    {"binder": "27F (ssRNA, 2'-F pyrimidines) RNA: GGGAGGACGAUGCGGCAGUCUGGAUCUCUAUUGGAAUUUAGUCCUCAACUGUGCCCCAGACGACUCGCCCGA", "values": [
      {"measurement": "Kd", "result": 1.52, "unit": "nM"}
    ]},
    {"binder": "60N (ssRNA, 2'-NH2 pyrimidines) RNA: GGGAGGACGAUGCGGCCCCUUAGCUCAGUGGUUAGAGCAGACGACUCGCCCGA", "values": [
      {"measurement": "Kd", "result": 7.38, "unit": "nM"}
    ]},
    {"binder": "69N (ssRNA, 2'-NH2 pyrimidines) RNA: GGGAGGACGAUGCGGGUAGGGAGUAGGACAGACAUAACAGUGCAACCAUCGUGGCCAGACGACUCGCCCGA", "values": [
      {"measurement": "Kd", "result": 15.2, "unit": "nM"}
    ]},
    {"binder": "3F (ssRNA, 2'-F pyrimidines) RNA: GGGAGGACGAUGCGGAUCGUAAUCGCCACUACUACUUUCCGAACCCGCACGUGGCCAGACGACUCGCCCGA", "values": [
      {"measurement": "Kd", "result": 4.47, "unit": "nM"}
    ]},
    {"binder": "24F (ssRNA, 2'-F pyrimidines) RNA: GGGAGGACGAUGCGGUGGUCUCCCUAGAUCUACAGCACUUCCAUCGCAUUGGGCCAGACGACUCGCCCGA", "values": [
      {"measurement": "Kd", "result": 2.02, "unit": "nM"}
    ]},
    {"binder": "35F (ssRNA, 2'-F pyrimidines) RNA: GGGAGGACGAUGCGGCGAAAUUAGCUUCUUAUGACUCACGUUUCCUUGCCGCCCCAGACGACUCGCCCGA", "values": [
      {"measurement": "Kd", "result": 1.1, "unit": "nM"}
    ]},
    {"binder": "28N (ssRNA, 2'-NH2 pyrimidines) RNA: GGGAGGACGAUGCGGUUGCUCUACAAUGACGCGGUGACUCCGCAGUUCUUGGACACAGACGACUCGCCCGA", "values": [
      {"measurement": "Kd", "result": 2.54, "unit": "nM"}
    ]},
    {"binder": "42F (ssRNA, 2'-F pyrimidines) RNA: GGGAGGACGAUGCGGCGACACAAUAGCCUUUGAUCCCAUGAUGGCUCGCCGUGCCCAGACGACUCGCCCGA", "values": [
      {"measurement": "Kd", "result": 0.9, "unit": "nM"}
    ]},
    {"binder": "29F (ssRNA, 2'-F pyrimidines) RNA: GGGAGGACGAUGCGGGGACUUCAACUAAGUCCUCAUUUGCCUCGCUCCUCGUGCCCAGACGACUCGCCCGA", "values": [
      {"measurement": "Kd", "result": 3.24, "unit": "nM"}
    ]},
    {"binder": "60F (ssRNA, 2'-F pyrimidines) RNA: GGGAGGACGAUGCGGUGACAUGGAAUUUUCUACGGGCCCGAUCCUGCCAGCCGUGUGCAGACGACUCGCCCGA", "values": [
      {"measurement": "Kd", "result": 2.1, "unit": "nM"}
    ]},
    {"binder": "54N (ssRNA, 2'-NH2 pyrimidines) RNA: GGGAGGACGAUGCGGAGAACCAACAGAGCCCCCUGGUGGUGGGGGAAGGAUUCUCAGACGACUCGCCCGA", "values": [
      {"measurement": "Kd", "setting": "dumbbell (predicted)", "result": 5.35, "unit": "nM"}
    ]},
    {"binder": "7F (ssRNA, 2'-F pyrimidines) RNA: GGGAGGACGAUGCGGCGGGUACUCUUCGCCAGCUCCUCCAAGCGCGACCUGUGCCCAGACGACUCGCCCGA", "values": [
      {"measurement": "Kd", "result": 3.69, "unit": "nM"}
    ]},
    {"binder": "47N (ssRNA, 2'-NH2 pyrimidines) RNA: GGGAGGACGAUGCGGGAAGGGUAGGAAGGUCAAGAGGAAACAGCGCUUCGGGGUGCAGACGACUCGCCCGA", "values": [
      {"measurement": "Kd", "result": 1.76, "unit": "nM"}
    ]},
    {"binder": "16N (ssRNA, 2'-NH2 pyrimidines) RNA: GGGAGGACGAUGCGGAAGUUCUAACAAGUUAGUGGAAGGUUCCACUUGAAUGUACAGACGACUCGCCCGA", "values": [
      {"measurement": "Kd", "result": 1.4, "unit": "nM"}
    ]},
    {"binder": "GGGAGGACGAUGCGGAUGGAGCUGAAAUCAGACGACUCGCCCGA (ssRNA, 2'-NH2 pyrimidines)", "note": "[22N]", "values": [
      {"measurement": "Kd", "result": 5.7, "unit": "nM"}
    ]},
    {"binder": "71N (ssRNA, 2'-NH2 pyrimidines) RNA: GGGAGGACGAUGCGGAAACGGCGUGGCAAAAGUGAGGGGGUAGGAUGUACCAUGGGUCAGACGACUCGCCCGA", "values": [
      {"measurement": "Kd", "result": 3.52, "unit": "nM"}
    ]},
    {"binder": "2F (ssRNA, 2'-F pyrimidines) RNA: GGGAGGACGAUGCGGGCAUUCGUCAAUACCUUGUUUUAUUCCUUUUCUAGCGGCCCAGACGACUCGCCCGA", "values": [
      {"measurement": "Kd", "result": 1.77, "unit": "nM"}
    ]},
    {"binder": "8F (ssRNA, 2'-F pyrimidines) RNA: GGGAGGACGAUGCGGUUUCGAAUAGGGCCAUUUCUCACUAGCUAUCCUACCCUGCCCAGACGACUCGCCCGA", "values": [
      {"measurement": "Kd", "result": 2.63, "unit": "nM"}
    ]},
    {"binder": "48N (ssRNA, 2'-NH2 pyrimidines) RNA: GGGAGGACGAUGCGGGGCAAAGGAAGUUGGAAUCGGGACUAAGUAGUGUGUGGCCAGACGACUCGCCCGA", "values": [
      {"measurement": "Kd", "result": 1.34, "unit": "nM"}
    ]},
    {"binder": "11N (ssRNA, 2'-NH2 pyrimidines) RNA: GGGAGGACGAUGCGGGGGCCGGAUUUGAACCGACGACUUCGGGUUAUGAGCCCGACGUCAGACGACUCGCCCGA", "values": [
      {"measurement": "Kd", "result": 1.28, "unit": "nM"}
    ]},
    {"binder": "11F (ssRNA, 2'-F pyrimidines) RNA: GGGAGGACGAUGCGGUGAUGGCGACCAGUCAAACCGGUGCUUUUACUCCCCCGCCAGACGACUCGCCCGA", "values": [
      {"measurement": "Kd", "result": 3.74, "unit": "nM"}
    ]},
    {"binder": "72N (ssRNA, 2'-NH2 pyrimidines) RNA: GGGAGGACGAUGCGGGAGGGGAAAAUGAGACCGACAGAUUGACGGAAGUACUGGGCAGACGACUCGCCCGA", "values": [
      {"measurement": "Kd", "result": 7.67, "unit": "nM"}
    ]},
    {"binder": "35N (ssRNA, 2'-NH2 pyrimidines) RNA: GGGAGGACGAUGCGGGCUUAGGGAAAUGGUUCUGAGGUGGUCAGACGACUCGCCCGA", "values": [
      {"measurement": "Kd", "result": 2.32, "unit": "nM"}
    ]},
    {"binder": "53F (ssRNA, 2'-F pyrimidines) RNA: GGGAGGACGAUGCGGAUCAAAAGCACUCAUUCCCGUGCUCGCUUCAUUGGUCCCCCAGACGACUCGCCCGA", "values": [
      {"measurement": "Kd", "result": 0.7, "unit": "nM"}
    ]},
    {"binder": "24N (ssRNA, 2'-NH2 pyrimidines) RNA: GGGAGGACGAUGCGGGUGGGAAGAUGAGCCGGUCGGCAGUAAUGUGACACUGCGGCAGACGACUCGCCCGA", "values": [
      {"measurement": "Kd", "result": 1.16, "unit": "nM"}
    ]}
  ]
}
